Assay results published in PMC4646322 (The Journal of Biological Chemistry, 2015).

Key:
[1] = target: the molecule itself; assay: SEC-MALS; SEC-MALLS, Superdex75 10/300, 50 mM Tris pH 7.5, 150 mM NaCl; samples loaded at 20, 200 or 500 μM
[2] = target: the molecule itself; assay: AUC; sedimentation equilibrium, 20 and 200 μM TolR(36–142), 15,000-35,000 rpm, 20 h at each speed, 50 mM Tris pH 7.5, 150 mM NaCl, 20 °C, interference optics; self-association model

| Protein | binding result [1] | stoichiometry N [2] |
| --- | --- | --- |
| E. coli TolR(60–133), truncated TolR (domain or fragment, Escherichia coli K12, three residues left at the N terminus after cleavage by tobacco etch virus protease; TolR, Escherichia coli K12, residues 60-133 (N- and C-terminal strand-swapped regions deleted); expected mass 8314.6 Da; Dimer that dissociates already at 200 μM; also called TolR24; source: E. coli BL21 DE3, purified (HisTrap, TEV cleavage, Superdex75); not shown: His6, N-terminal, cleaved) GAMDNPPVIVEVSGIGQYTVVVEKDRLERLPPEQVVAEVSSRFKANPKTVFLIGGAKDVPYDEIIKALNLLHSAGVK | binds | – |
| E. coli TolR(36–142), intact periplasmic domain of TolR (domain or fragment, Escherichia coli K12, three residues left at the N terminus after cleavage by tobacco etch virus protease; expected mass of the monomer 11,695.4 Da; Vector pETM-11; also called TolR21; source: E. coli BL21 DE3, purified (HisTrap, TEV cleavage, Superdex75); not shown: His6, N-terminal, cleaved) GAMAPIITQSVEVDLPDATESQAVSSNDNPPVIVEVSGIGQYTVVVEKDRLERLPPEQVVAEVSSRFKANPKTVFLIGGAKDVPYDEIIKALNLLHSAGVKSVGLMTQPI | – | 2 |
| E. coli TolR(64–142) (domain or fragment, Escherichia coli K12, three residues left at the N terminus after cleavage by tobacco etch virus protease; expected mass 8818.3 Da; Dimer that dissociates on dilution; source: E. coli BL21 DE3, purified (HisTrap, TEV cleavage, Superdex75); not shown: His6, N-terminal, cleaved) GAMVIVEVSGIGQYTVVVEKDRLERLPPEQVVAEVSSRFKANPKTVFLIGGAKDVPYDEIIKALNLLHSAGVKSVGLMTQPI | binds | – |
| E. coli TolR(36–133) (domain or fragment, Escherichia coli K12, three residues left at the N terminus after cleavage by tobacco etch virus protease; TolR, Escherichia coli K12, residues 36-133 (9 C-terminal residues deleted); expected mass 10,768.2 Da; Dimer that dissociates on dilution; essentially monomeric at low micromolar concentrations; source: E. coli BL21 DE3, purified (HisTrap, TEV cleavage, Superdex75); not shown: His6, N-terminal, cleaved) GAMAPIITQSVEVDLPDATESQAVSSNDNPPVIVEVSGIGQYTVVVEKDRLERLPPEQVVAEVSSRFKANPKTVFLIGGAKDVPYDEIIKALNLLHSAGVK | binds | – |
